Sequences and labels used below:
B1: ATGL (PNPLA2, patatin-like phospholipase domain-containing protein 2), human, full length / G0S2 (G0/G1 switch protein 2), human (parent)
chain 1: MFPREKTWNISFAGCGFLGVYYVGVASCLREHAPFLVANATHIYGASAGALTATALVTGVCLGEAGAKFIEVSKEARKRFLGPLHPSFNLVKIIRSFLLKVLPADSHEHASGRLGISLTRVSDGENVIISHFNSKDELIQANVCSGFIPVYCGLIPPSLQGVRYVDGGISDNLPLYELKNTITVSPFSGESDICPQDSSTNIHELRVTNTSIQFNLRNLYRLSKALFPPEPLVLREMCKQGYRDGLRFLQRNGLLNRPNPLLALPPARPHGPEDKDQAVESAQAEDYSQLPGEDHILEHLPARLNEALLEACVEPTDLLTTLSNMLPVRLATAMMVPYTLPLESALSFTIRLLEWLPDVPEDIRWMKEQTGSICQYLVMRAKRKLGRHLPSRLPEQVELRRVQSLPSVPLSCAAYREALPGWMRNNLSLGDALAKWEECQRQLLLGLFCTNVAFPPEALRMRAPADPAPAPADPASPQHQLAGPAPLLSTPAPEARPVIGALGL
chain 2: METVQELIPLAKEMMAQKRKGKMVKLYVLGSVLALFGVVLGLMETVCSPFTAARRLRDQEAAVAELQAALERQALQKQALQEKGKQQDTVLGGRALSNRQHAS
B2: ATGL (PNPLA2, patatin-like phospholipase domain-containing protein 2), human, full length / CGI-58 (ABHD5, 1-acylglycerol-3-phosphate O-acyltransferase ABHD5), human (parent)
chain 1: B1 chain 1
chain 2: MAAEEEEVDSADTGERSGWLTGWLPTWCPTSISHLKEAEEKMLKCVPCTYKKEPVRISNGNKIWTLKFSHNISNKTPLVLLHGFGGGLGLWALNFGDLCTNRPVYAFDLLGFGRSSRPRFDSDAEEVENQFVESIEEWRCALGLDKMILLGHNLGGFLAAAYSLKYPSRVNHLILVEPWGFPERPDLADQDRPIPVWIRALGAALTPFNPLAGLRIAGPFGLSLVQRLRPDFKRKYSSMFEDDTVTEYIYHCNVQTPSGETAFKNMTIPYGWAKRPMLQRIGKMHPDIPVSVIFGARSCIDGNSGTSIQSLRPHSYVKTIAILGAGHYVYADQPEEFNQKVKEICDTVD

In paper PMC10958042 one finds screen value data, which are given here for 58 variants.

Variants of B1 are the subject of the first test. Kind of test: LUMIER: Protein A-ATGL variant and firefly luciferase-partner co-expressed in HEK293T, lysates immunoprecipitated on IgG-coated plates, co-precipitated partner measured as luciferase luminescence. The following applies: with G0S2 (G0/G1 switch protein 2), transient co-transfection, IgG-coated LUMITRAC plates, 2 h at 4 °C, three PBS washes, Bright-Glo luciferase reagent, triplicates per assay, two …, parent: 0.26, not graded, scale: log2 fold change of co-immunoprecipitated luminescence relative to wild-type ATGL within each experiment.
Regarding chain 1 E125L, the screen value was -0.308.

As for chain 1 P156K, the screen value was -2.18.

As for chain 1 E314A, the screen value was 0.00238.

As to chain 1 K275A, the screen value was -0.535.

Regarding chain 1 E368A, the screen value was -0.233.

With chain 1 G153K, the screen value was -1.68.

Turning to chain 1 G153A, the screen value was -1.31.

For chain 1 G59L, the screen value is -2.12.

For the variant chain 1 N39E, the screen value was -2.73.

chain 1 P86K: the screen value is -0.894.

For the variant chain 1 H109E, the screen value stood at 0.353.

As to chain 1 L62K, the screen value was -1.38.

Take chain 1 L62A: the screen value was -1.67.

For chain 1 G16K, the screen value is -0.435.

For chain 1 G189E, the screen value is -2.28.

The same test, now with this note: with G0S2 (G0/G1 switch protein 2), transient co-transfection, IgG-coated LUMITRAC plates, 2 h at 4 °C, three PBS washes, Bright-Glo luciferase reagent, triplicates per assay, two …, parent: 0.56, not graded, scale: log2 fold change of co-immunoprecipitated luminescence relative to wild-type ATGL within each experiment.
Consider chain 1 E125L, for which the screen value is -0.181.

Regarding chain 1 P156K, the screen value is -2.45.

In the case of chain 1 E314A, the screen value is -0.218.

Regarding chain 1 K275A, the screen value is -0.748.

chain 1 E368A: the screen value is -0.215.

Regarding chain 1 G153K, the screen value was -2.61.

Turning to chain 1 G153A, the screen value is -1.25.

On to chain 1 G59L, for which the screen value is -2.22.

With chain 1 N39E, the screen value was -2.67.

As to chain 1 P86K, the screen value was -0.783.

Consider chain 1 H109E, for which the screen value stood at 0.0835.

Consider chain 1 L62K, for which the screen value was -1.99.

For the variant chain 1 L62A, the screen value is -2.25.

For the variant chain 1 G16K, the screen value is -0.755.

With chain 1 G189E, the screen value is -2.66.

The variants in the next test derive from B2. The test is described as above. As to conditions: with CGI-58 (ABHD5, 1-acylglycerol-3-phosphate O-acyltransferase ABHD5), transient co-transfection, IgG-coated LUMITRAC plates, 2 h at 4 °C, three PBS washes, Bright-Glo luciferase reagent, triplicates per assay, two …, parent: 0.32, not graded, scale: log2 fold change of co-immunoprecipitated luminescence relative to wild-type ATGL within each experiment.
As to chain 1 S158A, the screen value was determined as 0.402.

chain 1 S158E: the screen value was -0.0835.

chain 1 Q140K: the screen value is -0.444.

For the variant chain 1 Q140A, the screen value is 0.428.

Consider chain 1 R95L, for which the screen value was -0.121.

chain 1 R95K: the screen value came out at 0.177.

With chain 1 T41A, the screen value worked out at 0.269.

In the case of chain 1 Y415A, the screen value amounted to 0.149.

Consider chain 1 S87A, for which the screen value was -0.244.

chain 1 S87E: the screen value was -0.0233.

With chain 1 P258L, the screen value was -1.23.

As for chain 1 L159A, the screen value was -0.737.

As to chain 1 R329E, the screen value was -0.412.

For chain 1 V328A, the screen value is -0.513.

Regarding chain 1 S106K, the screen value was -0.182.

With chain 1 L261E, the screen value is -1.2.

On to chain 1 G66A, for which the screen value is -0.000473.

For the variant chain 1 G66L, the screen value was 0.0179.

On to chain 1 P103K, for which the screen value was -0.089.

In the case of chain 1 L102K, the screen value was -0.532.

With chain 1 H109E, the screen value was 0.0522.

For chain 1 K92L, the screen value is -0.67.

For the variant chain 1 Q396A, the screen value is -0.502.

Take chain 1 P156K: the screen value is -0.794.

chain 1 K275A: the screen value is -0.731.

Turning to chain 1 L62A, the screen value is -0.556.

Take chain 1 L62K: the screen value was -0.614.

In the case of chain 1 I70K, the screen value is -0.355.

For the variant chain 1 I70A, the screen value was -0.496.

chain 1 N39E: the screen value was -0.3.

Regarding chain 1 L178A, the screen value is -0.598.

As to chain 1 V127L, the screen value is -0.449.

Take chain 1 R351L: the screen value is -0.948.

In the case of chain 1 R113L, the screen value is -0.625.

In the case of chain 1 R113K, the screen value was 0.189.

As to chain 1 G16K, the screen value was -0.139.

Regarding chain 1 P86K, the screen value was -0.174.

As to chain 1 G189E, the screen value is -1.39.

In the case of chain 1 R163K, the screen value was determined as 0.351.

Take chain 1 G59L: the screen value is -0.404.

Regarding chain 1 G153A, the screen value was -0.595.

Regarding chain 1 G153K, the screen value is -0.536.

The same test, now with this note: with CGI-58 (ABHD5, 1-acylglycerol-3-phosphate O-acyltransferase ABHD5), transient co-transfection, IgG-coated LUMITRAC plates, 2 h at 4 °C, three PBS washes, Bright-Glo luciferase reagent, triplicates per assay, two …, parent: 0.45, not graded, scale: log2 fold change of co-immunoprecipitated luminescence relative to wild-type ATGL within each experiment.
In the case of chain 1 S158A, the screen value stood at 0.00753.

Consider chain 1 S158E, for which the screen value was -0.000176.

In the case of chain 1 Q140K, the screen value stood at 0.322.

Consider chain 1 Q140A, for which the screen value was determined as 0.0685.

In the case of chain 1 R95L, the screen value was -0.396.

For the variant chain 1 R95K, the screen value was -0.0705.

Take chain 1 T41A: the screen value was found to be 0.283.

For chain 1 Y415A, the screen value was -0.124.

For the variant chain 1 S87A, the screen value is -0.0566.

For chain 1 S87E, the screen value is -0.304.

With chain 1 P258L, the screen value was -1.16.

Regarding chain 1 L159A, the screen value was -0.542.

With chain 1 R329E, the screen value is -0.601.

Consider chain 1 V328A, for which the screen value is -0.464.

Consider chain 1 S106K, for which the screen value was -0.557.

Turning to chain 1 L261E, the screen value is -0.989.

In the case of chain 1 G66A, the screen value came to 0.0899.

As for chain 1 G66L, the screen value was -0.54.

Turning to chain 1 P103K, the screen value is 0.0251.

For the variant chain 1 L102K, the screen value was -0.83.

In the case of chain 1 H109E, the screen value is -0.021.

As to chain 1 K92L, the screen value is -0.328.

In the case of chain 1 Q396A, the screen value was -0.818.

Take chain 1 P156K: the screen value is -0.596.

On to chain 1 K275A, for which the screen value was -0.473.

As for chain 1 L62A, the screen value was -0.528.

For the variant chain 1 L62K, the screen value is -0.447.

For chain 1 I70K, the screen value is -0.676.

For the variant chain 1 I70A, the screen value was -0.552.

chain 1 N39E: the screen value was -0.215.

For chain 1 L178A, the screen value is -0.392.

Turning to chain 1 V127L, the screen value was -0.203.

Consider chain 1 R351L, for which the screen value was -1.04.

As for chain 1 R113L, the screen value was -0.259.

For the variant chain 1 R113K, the screen value was 0.534.

As for chain 1 G16K, the screen value came to 0.515.

On to chain 1 P86K, for which the screen value was -0.669.

As for chain 1 N180L, the screen value was -0.679.

For the variant chain 1 G189E, the screen value was -1.13.

Turning to chain 1 R163K, the screen value was 0.226.

Consider chain 1 G59L, for which the screen value is -0.665.

Regarding chain 1 G153A, the screen value was -0.455.

For the variant chain 1 G153K, the screen value was -0.602.

The test is the same for the next values; noted with them: with CGI-58 (ABHD5, 1-acylglycerol-3-phosphate O-acyltransferase ABHD5), transient co-transfection, IgG-coated LUMITRAC plates, 2 h at 4 °C, three PBS washes, Bright-Glo luciferase reagent, triplicates per assay, two …, parent: 0.32, not graded, value at the no-binding floor (a bound), scale: log2 fold change of co-immunoprecipitated luminescence relative to wild-type ATGL within each experiment.
chain 1 N180L: the screen value was -1.8.
